{
  "source": "patent US12365732",
  "about": "(23ANDME, dated 2025)",
  "binders": {"B1": {"name": "9H4, purified hybridoma antibody (antibody, V domains shown)", "VH": "EVQLLETGGGLVKSGGSLKLSCAASGFTFSDYYMYWVRQTPEKRLEWVAAISDDGTYTYYPDSVKGRFTISRDNANNYLYLQMSSLKSEDTAIYYCAKAGSYDYFDVWGAGTTVTVSS", "VL": "DIVLTQSPASLAVSLGQRAIISCKASQSVTFADTGLMHWYQQKPGQQPKLLIYRASNLEVGVPTRFSGSGSGTDFTLNIHPVEEEDVATYYCQQSREYPWTFGGGTKLEIK", "notes": "murine hybridoma IgG"}, "B2": {"name": "7E5, purified hybridoma antibody (antibody, V domains shown)", "VH": "QVQLKESGPGLVAPSQSLSIICTVSGFSLTNYGIHWIRQPPGKGLEWLGIIWAGGSTNYNSALMSRLTISKDNSKSQVFLKMNSLQTNDTAIYYCARVSMMGFAYWGQGTLVTVSA", "VL": "QAVVTQESALTTSPGETVTLTCRSSTGAVTTSNYANWVQEKPDHLFTGLIGGTNNRAPGVPARFSGSLIGDKAALTITGAQTEDEAIYFCSLWYGSHWVFGGGTKLTVL", "notes": "murine hybridoma IgG"}, "B3": {"name": "10G1 (clone 10G1.3G8), purified hybridoma antibody (antibody, V domains shown)", "VH": "QIQLVQSGPELKKPGETVKISCKASGYPFTTYGMSWVKQAPGKGLKWMGWINTDSGVPTYADDFKGRFAFSLETSANTAYLQINSLKNEDAATYFCARNIYYGWGNFDYWGQGTILTVSS", "VL": "DILMTQSPTTLSVTPGETVSLSCRASQDIYRNLHWYQQKSQGTPRLLIKHASDSISGIPSRFTGSGSGTDFTLSINSVKPEDEGIYYCLQGYSMPYTFGGGTKLEIK", "notes": "murine hybridoma IgG"}, "B4": {"name": "mAb1.v7 IgG (humanized 12F8) (antibody, V domains shown)", "VH": "EVQLVQSGAEVKKPGASVKVSCKASGFTFTNNWMHWVRQAPGQGLEWIGMIHPNSGITNINEKFKNRVTMTTDTSTSTAYMELRSLRSEDTAVYYCRSDGTYEGYFDYWGQGTLVTVSS", "VL": "DIQLTQSPSSLSASVGDRVTITCKASQNVGTAIVWYQQKPGKAPKVLIYSASTRYTGVPSRFSGSGSGTDFTLTISSLQPEDFATYYCQQYSSSPLTFGQGTKVEIKG", "notes": "human IgG1 N297G"}, "B5": {"name": "mAb1.v7.NGS9 IgG (antibody, V domains shown)", "VH": "B4 VH with W33F, P53A, T101V", "VL": "B4 VL", "notes": "human IgG1 N297G"}, "B6": {"name": "mAb1.v7.NGS10 IgG (antibody, V domains shown)", "VH": "B4 VH with W33F, M50F, P53A, T101I", "VL": "B4 VL", "notes": "human IgG1 N297G"}, "B7": {"name": "mAb1.v7.NGS11 IgG (antibody, V domains shown)", "VH": "B4 VH with W33F, M50F, P53A, T101V", "VL": "B4 VL", "notes": "human IgG1 N297G"}, "B8": {"name": "h10G1 IgG (humanized 10G1) (antibody, V domains shown)", "VH": "EIQLVQSGSELKKPGASVKVSCKASGYPFTTYGMSWVRQAPGQGLEWMGWINTDSGVPTYADDFKGRFVFSLDTSVSTAYLQISSLKAEDTAVYFCARNIYYGWGNFDYWGQGTLVTVSS", "VL": "EIVMTQSPDFQSVTPKEKVTITCRASQDIYRNLHWYQQKPDQTPKLLIKHASDSISGIPSRFSGSGSGTDFTLTINSLEAEDAAAYYCLQGYSMPYTFGGGTKVEIKG", "notes": "human IgG1 N297G"}},
  "key": {"[1]": {"target": "T1, hu-CD96 isoform 1 on HEK293T cells (human, UniProt P40200 22-585)", "T1 construct": "Origene RC213845, transient expression; also called HEK293T-CD96 (iso1)", "T1 sequence": "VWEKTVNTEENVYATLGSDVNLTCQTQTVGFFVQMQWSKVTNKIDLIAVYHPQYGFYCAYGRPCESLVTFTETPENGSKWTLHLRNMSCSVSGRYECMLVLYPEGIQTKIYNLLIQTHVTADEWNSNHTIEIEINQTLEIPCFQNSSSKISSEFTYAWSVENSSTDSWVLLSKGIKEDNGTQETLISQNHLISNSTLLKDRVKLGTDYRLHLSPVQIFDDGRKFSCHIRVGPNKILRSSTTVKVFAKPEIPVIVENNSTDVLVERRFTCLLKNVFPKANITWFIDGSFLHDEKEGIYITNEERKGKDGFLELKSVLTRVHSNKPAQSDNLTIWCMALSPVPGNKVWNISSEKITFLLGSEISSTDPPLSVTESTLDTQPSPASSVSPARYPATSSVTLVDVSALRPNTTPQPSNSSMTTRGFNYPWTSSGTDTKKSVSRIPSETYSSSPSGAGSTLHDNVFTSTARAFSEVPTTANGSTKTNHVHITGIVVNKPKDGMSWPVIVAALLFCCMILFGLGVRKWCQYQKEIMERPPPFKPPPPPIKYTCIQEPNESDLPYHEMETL", "assay": "FACS, Ab 50 nM", "procedure": "(§1) Isoform 1 of hu-CD96 (Origene, catalog #RC213845) was transiently expressed in HEK293T cells following standard lipofectamine or Fugene transfection protocol. […] Cells were washed, and binding was detected by incubation with anti-mouse IgG-FITC (Biolegend, catalog #406001) for 20 minutes at 4° C. Cell binding was analyzed by flow cytometry with a CytoFLEX (Beckman Coulter). Binding curves were calculated as a percentage of cells positive for bound antibody."}, "[2]": {"target": "T2, hu-CD96 isoform 2 on CHO cells (human, UniProt P40200 22-585)", "T2 construct": "also called CHO-CD96 (isoform 2); CD96-CHOs", "T2 sequence": "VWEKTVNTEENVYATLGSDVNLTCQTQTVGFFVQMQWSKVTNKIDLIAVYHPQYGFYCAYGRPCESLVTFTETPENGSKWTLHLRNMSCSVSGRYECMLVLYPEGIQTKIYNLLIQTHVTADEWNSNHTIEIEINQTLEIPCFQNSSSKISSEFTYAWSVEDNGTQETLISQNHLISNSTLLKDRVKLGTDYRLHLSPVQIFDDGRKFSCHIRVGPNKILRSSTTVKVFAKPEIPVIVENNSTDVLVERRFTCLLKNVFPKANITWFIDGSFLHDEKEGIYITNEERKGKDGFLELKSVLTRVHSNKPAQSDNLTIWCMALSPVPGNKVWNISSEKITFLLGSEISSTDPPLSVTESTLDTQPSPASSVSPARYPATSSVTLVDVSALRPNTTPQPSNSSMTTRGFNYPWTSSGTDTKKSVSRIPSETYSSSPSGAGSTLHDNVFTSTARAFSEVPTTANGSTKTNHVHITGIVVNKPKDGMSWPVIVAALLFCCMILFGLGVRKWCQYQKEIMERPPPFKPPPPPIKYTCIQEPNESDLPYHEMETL", "assay": "FACS, Ab 0.4 nM", "procedure": "as §1\n(§2) Isoform 2 of hu-CD96 (DNA construct: Origene, catalog #RC221005) was expressed on a single-cell-clone-derived CHO stable cell line. Binding of the anti-CD96 antibodies to the CHO cells were determined as described above with isoform 1 of hu-CD96."}, "[3]": {"target": "T2, hu-CD96 isoform 2 on CHO cells", "assay": "FACS, Ab 10 nM", "procedure": "as §1, §2"}, "[4]": {"target": "T1, hu-CD96 isoform 1 on HEK293T cells", "assay": "FACS, Ab 10 nM", "procedure": "as §1"}, "[5]": {"target": "T1, hu-CD96 isoform 1 on HEK293T cells", "assay": "FACS, % positive curve", "procedure": "as §1"}, "[6]": {"target": "T2, hu-CD96 isoform 2 on CHO cells", "assay": "FACS, CD155-Fc-FLAG 10 nM, Ab 0.8 nM", "procedure": "(§3) CHO cells stably expressing isoform 2 of hu-CD96 (Origene, catalog #RC221005) were incubated with anti-CD96 antibodies for 20 minutes at 4° C. The cells were washed, and then incubated with 10 nM human CD155-Fc-FLAG for 30 minutes at 4° C. Cells were washed, and then human CD155-Fc-FLAG binding was detected by incubation with anti-FLAG-APC (Columbia Biosciences, catalog #D3-1718-1MG) for 20 minutes at 4° C. Cell binding was analyzed by flow cytometry with a CytoFLEX (Beckman Coulter). CD155 binding is represented as median fluorescence intensity (MedFI).\n(§4) As shown in Table 20 (below), the anti-CD96 antibodies, mAb1.v7.NGS8, mAb1.v7.NGS9, mAb1.v7.NGS10, mAb1.v7.NGS11, and h10G1 inhibited soluble hu-CD155 binding to CD96-expressing CHO cells dose-dependently and potently. The antibody NK92.39 (Fuchs et al., 2004; Biolegend catalog #338405) inhibited receptor binding similarly."}, "[7]": {"target": "T2, hu-CD96 isoform 2 on CHO cells", "assay": "FACS, CD155-Fc-FLAG 10 nM, Ab 20 nM", "procedure": "as §3, §4"}},
  "note": "Changes are numbered by the printed parent chain. In names and notes the source's numbering stands.",
  "data": [
    {"binder": "B1", "values": [
      {"measurement": "% positive", "setting": "[1]", "value": 57.8, "unit": "%"},
      {"measurement": "% positive", "setting": "[2]", "value": 24.1, "unit": "%"},
      {"measurement": "% positive", "setting": "[3]", "value": 46.1, "unit": "%"},
      {"measurement": "% positive", "setting": "[4]", "value": 48.4, "unit": "%"},
      {"measurement": "EC50", "setting": "[5]", "value": 2.1, "unit": "nM"}
    ]},
    {"binder": "B2", "values": [
      {"measurement": "% positive", "setting": "[1]", "value": 52.1, "unit": "%"},
      {"measurement": "% positive", "setting": "[2]", "value": 44.1, "unit": "%"},
      {"measurement": "% positive", "setting": "[3]", "value": 56.1, "unit": "%"},
      {"measurement": "% positive", "setting": "[4]", "value": 47.4, "unit": "%"},
      {"measurement": "EC50", "setting": "[5]", "value": 0.71, "unit": "nM"}
    ]},
    {"binder": "B3", "values": [
      {"measurement": "% positive", "setting": "[1]", "value": 56.1, "unit": "%"},
      {"measurement": "% positive", "setting": "[2]", "value": 25, "unit": "%"},
      {"measurement": "% positive", "setting": "[3]", "value": 39.2, "unit": "%"},
      {"measurement": "% positive", "setting": "[4]", "value": 53.4, "unit": "%"},
      {"measurement": "EC50", "setting": "[5]", "value": 0.24, "unit": "nM"}
    ]},
    {"binder": "B4", "values": [
      {"measurement": "% positive", "setting": "[1]", "value": 61, "unit": "%"},
      {"measurement": "% positive", "setting": "[2]", "value": 17.7, "unit": "%"},
      {"measurement": "% positive", "setting": "[3]", "value": 44.8, "unit": "%"},
      {"measurement": "% positive", "setting": "[4]", "value": 48.8, "unit": "%"},
      {"measurement": "EC50", "setting": "[5]", "value": 2.6, "unit": "nM"}
    ]},
    {"binder": "B5", "values": [
      {"measurement": "CD155-Fc binding (MedFI)", "setting": "[6]", "value": 32200, "unit": "MedFI"},
      {"measurement": "CD155-Fc binding (MedFI)", "setting": "[7]", "value": 4260, "unit": "MedFI"}
    ]},
    {"binder": "B6", "values": [
      {"measurement": "CD155-Fc binding (MedFI)", "setting": "[6]", "value": 23600, "unit": "MedFI"},
      {"measurement": "CD155-Fc binding (MedFI)", "setting": "[7]", "value": 4940, "unit": "MedFI"}
    ]},
    {"binder": "B7", "values": [
      {"measurement": "CD155-Fc binding (MedFI)", "setting": "[6]", "value": 23600, "unit": "MedFI"},
      {"measurement": "CD155-Fc binding (MedFI)", "setting": "[7]", "value": 4460, "unit": "MedFI"}
    ]},
    {"binder": "B8", "values": [
      {"measurement": "CD155-Fc binding (MedFI)", "setting": "[6]", "value": 5870, "unit": "MedFI"},
      {"measurement": "CD155-Fc binding (MedFI)", "setting": "[7]", "value": 4860, "unit": "MedFI"}
    ]}
  ]
}
